Measurements taken from patent US20130034559A1.

Legend:
[1] = target: human B7-H1 expressed on cells (human) (UniProt Q9NZQ7); test: FACS, 1 µg/ml isotype control, anti-CD3-activated human T cells
[2] = target: mouse B7-H1 on J558 cells (mouse) (UniProt Q9EP73); test: FACS, 5 µg/ml isotype control, J558 cells expressing mouse B7-H1
[3] = target: human B7-DC on 293T cells (human) (UniProt Q9BQ51); test: FACS, 5 µg/ml isotype control, 293T cells transfected with human B7-DC
[4] = target: human B7-H1 expressed on cells (human) (UniProt Q9NZQ7); test: FACS, 5 µg/ml isotype control, 293T cells transfected with human B7-H1
[5] = target: cynomolgus monkey B7-H1 expressed on cells (cynomolgus monkey) (UniProt G7PSE7); test: FACS, 1 µg/ml isotype control, anti-CD3-activated cynomolgus monkey T cells
Sequence of cynomolgus monkey B7-H1 expressed on cells (cynomolgus monkey) (G7PSE7 entry or part of it): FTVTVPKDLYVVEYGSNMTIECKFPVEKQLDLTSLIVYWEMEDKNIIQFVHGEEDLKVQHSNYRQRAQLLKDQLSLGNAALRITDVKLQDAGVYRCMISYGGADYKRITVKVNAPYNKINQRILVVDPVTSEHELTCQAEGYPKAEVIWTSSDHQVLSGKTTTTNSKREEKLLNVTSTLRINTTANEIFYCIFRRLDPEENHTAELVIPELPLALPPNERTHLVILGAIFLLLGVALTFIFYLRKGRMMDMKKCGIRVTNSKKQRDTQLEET

Sequence of human B7-H1 expressed on cells (human) (Q9NZQ7 19-290): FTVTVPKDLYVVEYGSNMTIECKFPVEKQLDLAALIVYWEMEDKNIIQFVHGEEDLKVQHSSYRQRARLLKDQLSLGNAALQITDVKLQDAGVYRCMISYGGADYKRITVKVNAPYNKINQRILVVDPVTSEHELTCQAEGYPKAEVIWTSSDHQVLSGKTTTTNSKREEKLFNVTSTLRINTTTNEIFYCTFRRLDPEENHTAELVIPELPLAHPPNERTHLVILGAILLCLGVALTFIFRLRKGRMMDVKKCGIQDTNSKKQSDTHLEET
Sequence of human B7-DC on 293T cells (human) (Q9BQ51 20-273): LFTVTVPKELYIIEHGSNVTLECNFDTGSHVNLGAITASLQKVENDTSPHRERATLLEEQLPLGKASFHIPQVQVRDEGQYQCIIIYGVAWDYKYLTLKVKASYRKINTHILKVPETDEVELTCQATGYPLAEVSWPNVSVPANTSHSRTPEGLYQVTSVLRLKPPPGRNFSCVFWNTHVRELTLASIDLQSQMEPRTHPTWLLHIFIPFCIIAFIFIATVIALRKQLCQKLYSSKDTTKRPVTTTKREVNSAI
Sequence of mouse B7-H1 on J558 cells (mouse) (Q9EP73 19-290): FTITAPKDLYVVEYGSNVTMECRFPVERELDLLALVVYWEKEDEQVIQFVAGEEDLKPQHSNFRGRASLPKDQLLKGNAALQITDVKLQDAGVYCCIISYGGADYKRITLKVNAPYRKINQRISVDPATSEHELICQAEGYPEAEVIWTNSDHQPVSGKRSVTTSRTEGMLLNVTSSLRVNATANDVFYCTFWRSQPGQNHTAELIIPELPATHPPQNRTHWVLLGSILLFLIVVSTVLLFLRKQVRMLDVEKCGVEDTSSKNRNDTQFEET

geo mean [1]	geo mean [2]	geo mean [3]	geo mean [4]	geo mean [5]	Substance
10	3.2	8.8	10.7	17.6	irrelevant human IgG4 antibody
10	3.1	9.5	7.6	–	irrelevant human IgG2 antibody
